In paper PMC6478338, “Peptide barcoding for establishment of new types of genotype–phenotype linkages” (PLoS ONE, 2019):

Target: T1, Recombinant human sCD4 CF (Homo sapiens, UniProt P01730)
T1 construct: CD4, human, soluble recombinant form (sCD4, carrier-free); it is probably the extracellular domain of CD4 (surmised); also called recombinant CD4; source: bought: R&D Systems
Assay: SPR; Biacore T-200; sCD4 (2486.9 RU) or GFP (1189.8 RU) immobilised on CM5 chip; nanobodies flowed in HBS-EP (0.01 M HEPES pH 7.4, 0.15 M NaCl, 3 mM EDTA, 0.005% P20): anti-CD4 0.2-1.0 uM, anti-GFP 0.5-50 nM; 30 uL/min, contact 120 s, dissociation 120 s
Conditions: both partners purified

B1: Anti-CD4-FLAG nanobody (VHH)
VHH: EVQLVESGGGSVQPGGSLTLSCGTSGRTFNVMGWFRQAPGKEREFVAAVRWSSTGIYYTQYADSVKSRFTISRDNAKNTVYLEMNSLKPEDTAVYYCAADTYNSNPARWDGYDFRGQGTQVTVSS
notes: also called anti-CD4 nanobody; source: Pichia pastoris GS115, secreted; culture supernatant filtered, concentrated and buffer-replaced with PBS
Kd: 42 nM
koff: 0.0054 s⁻¹
kon: 68000 M⁻¹ s⁻¹

B2: Anti-CD4-FLAG-Barcode 1 nanobody (VHH)
VHH: EVQLVESGGGSVQPGGSLTLSCGTSGRTFNVMGWFRQAPGKEREFVAAVRWSSTGIYYTQYADSVKSRFTISRDNAKNTVYLEMNSLKPEDTAVYYCAADTYNSNPARWDGYDFRGQGTQVTVSS
notes: also called peptide-barcoded anti-CD4 nanobody; source: Pichia pastoris GS115, secreted; culture supernatant filtered, concentrated and buffer-replaced with PBS; purified with anti-FLAG gels (immunostaining)
Kd: 52 nM
koff: 0.004 s⁻¹
kon: 77000 M⁻¹ s⁻¹
